Test results reported in the supplement of paper PMC7877785.
± gives the uncertainty stated by the source.

Assay: self-splicing fitness, log relative to wild type (ln ratio); higher = more splicing; Tetrahymena group I intron in knt gene, E. coli kanamycin selection, DiMSum; sequences stand for … in CUCUCU…GGAGGGAAAAGUUAUCAGGCAUGCACCUGGUAGCUAGUCUUUAAACCAAUAGAUUGCAUCGGUUUAAAAGGCAAGACCGUCAAAUUGCGGGAAAGGGGUCAACAGCCGUUCAGUACCAAGUCUCAGGGGAAACUUUGAGAUGGCCUUGCAAAGGGUAUGGUAAUAAGCUGACGGACAUGGUCCUAACCACGCAGCCAAGUCCUAAGUCAACAGAUCUUCUGUUGAUAUGGAUGCAGUUCACAGACUAAAUGUCGGUCGGGGAAGAUGUAUUCUUCUCAUAAGAUAUAGUCGGACCUCUCCUUAAUGGGAGCUAGCGGAUGAAGUGAUGCAACACUGGAGCCGCUGGGAACUAAUUUGUAUGCGAAAGUAUAUUGAUUAGUUUUGGAGUACUCGUGGUCG
How it was run: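 Fitness was computed with DiMSum as the error-weighted combination of replicate fold changes, kanamycin versus none, each normalised to wild type. The library randomised all eight intron nucleotides of the P1ex region, with the intron placed in the knt kanamycin-resistance gene on pET-22b(+) in E. coli BL21(DE3). Six replicate transformations were grown overnight at 37°C or 30°C on LB agar with or without 25 μg/mL kanamycin, plus 100 μg/mL carbenicillin, 50 μM IPTG and 0.2% rhamnose. Pooled colonies were amplicon-sequenced on an Illumina HiSeq 2500.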

| Sequence | self-splicing fitness (ln) (30 °C) | self-splicing fitness (ln) (37 °C) |
| --- | --- | --- |
| GACUAGCAAUAUUACGUUGU | -3.19 ± 0.14 | -2.17 ± 0.12 |
| GAGAAGCAAUAUUACGAAAA | -3.53 ± 0.4 | -2.2 ± 0.31 |
| GAGAAGCAAUAUUACGAACC | -0.324 ± 0.14 | -0.188 ± 0.22 |
| GAGAAGCAAUAUUACGAGCA | -1.79 ± 0.15 | -0.727 ± 0.14 |
| GAGAAGCAAUAUUACGCGAA | -2 ± 0.11 | -1.93 ± 0.17 |
| GAGAAGCAAUAUUACGCUGG | -2.87 ± 0.41 | -1.64 ± 0.41 |
| GAGAAGCAAUAUUACGCUUA | -2.41 ± 0.12 | -1.24 ± 0.13 |
| GAGAAGCAAUAUUACGGAAG | -3.57 ± 0.16 | -2.39 ± 0.14 |
| GAGAAGCAAUAUUACGGCUA | 0.0865 ± 0.09 | -0.0778 ± 0.1 |
| GAGAAGCAAUAUUACGGGCC | -2.03 ± 0.22 | -2.56 ± 0.41 |
| GAGAAGCAAUAUUACGGGCU | -2.57 ± 0.14 | -1.16 ± 0.14 |
| GAGAAGCAAUAUUACGGGGA | -2.34 ± 0.22 | -2.67 ± 0.28 |
| GAGAAGCAAUAUUACGGGUA | -2.02 ± 0.15 | -2.14 ± 0.16 |
| GAGAAGCAAUAUUACGGUCG | -0.943 ± 0.11 | -0.253 ± 0.11 |
| GAGAAGCAAUAUUACGUAAC | -1.62 ± 0.11 | -0.536 ± 0.12 |
| GAGAAGCAAUAUUACGUCCC | -0.258 ± 0.28 | -0.337 ± 0.29 |
| GAGAAGCAAUAUUACGUUAC | -3.39 ± 0.27 | -3.05 ± 0.35 |
| GAGAAGCAAUAUUACGUUGU | -3.19 ± 0.19 | -3.31 ± 0.32 |
| GAGCAGCAAUAUUACGACCA | -1.17 ± 0.14 | -1.02 ± 0.15 |
| GAGCAGCAAUAUUACGACGG | -4.27 ± 0.26 | -2.18 ± 0.17 |
| GAGCAGCAAUAUUACGAGAG |  | -2.19 ± 0.28 |
| GAGCAGCAAUAUUACGAUUU | -0.179 ± 0.068 | -0.211 ± 0.094 |
| GAGCAGCAAUAUUACGCACA | -0.256 ± 0.21 | -0.415 ± 0.14 |
| GAGCAGCAAUAUUACGCACG | -1.11 ± 0.061 | -0.692 ± 0.083 |

| Sequence | self-splicing fitness (ln) (30 °C) | self-splicing fitness (ln) (37 °C) |
| --- | --- | --- |
| GAGCAGCAAUAUUACGCAUC | -3.22 ± 0.2 | -3.08 ± 0.37 |
| GAGCAGCAAUAUUACGCCUG | -2.2 ± 0.19 | -2.32 ± 0.42 |
| GAGCAGCAAUAUUACGCGCG | -1.25 ± 0.1 | 0.406 ± 0.12 |
| GAGCAGCAAUAUUACGCUGU | -3.32 ± 0.18 | -2.52 ± 0.19 |
| GAGCAGCAAUAUUACGGACG | -2.19 ± 0.42 | -1.72 ± 0.33 |
| GAGCAGCAAUAUUACGGAUU | -1.2 ± 0.1 | 0.538 ± 0.11 |
| GAGCAGCAAUAUUACGGCCA | -0.255 ± 0.097 | -0.361 ± 0.14 |
| GAGCAGCAAUAUUACGGGAC | -2.82 ± 0.19 | -2.74 ± 0.15 |
| GAGCAGCAAUAUUACGUAGG | -2.83 ± 0.13 | -2.54 ± 0.2 |
| GAGCAGCAAUAUUACGUCAA | -1.14 ± 0.24 | -2.12 ± 0.25 |
| GAGCAGCAAUAUUACGUCAG | -3.23 ± 0.21 | -2.12 ± 0.26 |
| GAGCAGCAAUAUUACGUCGU | -1.35 ± 0.13 | -2.39 ± 0.2 |
| GAGCAGCAAUAUUACGUCUC | -2.48 ± 0.15 | -2.23 ± 0.22 |
| GAGCAGCAAUAUUACGUGAC | -2.38 ± 0.15 | -1.64 ± 0.15 |
| GAGCAGCAAUAUUACGUGCC | -1.58 ± 0.41 | -1.34 ± 0.26 |
| GAGCAGCAAUAUUACGUUAC | -2.55 ± 0.14 | -1.75 ± 0.13 |
| GAGGAGCAAUAUUACGAAUG |  | -1.7 ± 0.43 |
| GAGGAGCAAUAUUACGACCG |  | -0.621 ± 0.31 |
| GAGGAGCAAUAUUACGACGG | -3.25 ± 0.3 | -2.07 ± 0.31 |
| GAGGAGCAAUAUUACGAGAG | -2.77 ± 0.32 | -2.76 ± 0.41 |
| GAGGAGCAAUAUUACGAGCA | -3.52 ± 0.48 | -2.4 ± 0.46 |
| GAGGAGCAAUAUUACGAUAU | -1.34 ± 0.26 | -2.53 ± 0.45 |
| GAGGAGCAAUAUUACGCAGA | -3.91 ± 0.34 | -2.86 ± 0.32 |
| GAGGAGCAAUAUUACGCGGU | -3.21 ± 0.28 | -2.76 ± 0.31 |
